Among the data in patent US20120207760A1 (THERACLONE SCIENCES, published 2012) are OD450 values, retold here.

In this experiment the target is Hemagglutinin of influenza A/Solomon Islands/3/06 (H1N1), on inactivated whole virions (Influenza A virus A/Solomon …). The experiment in a line: ELISA, B cell culture supernatant on inactivated whole virions. Background: ELISA stands for enzyme-linked immunosorbent assay.

B1: TCN-563 (5237_B21) (antibody, V domains shown)
VH: QVQLAQSGAEVKRPGSSVKVSCTASGGIFRKNAISWVRQAPGQGLEWMGGIIAVFNTANYAQKFQGRVKITADESGNTAYMELSSLRSDDTAVYYCASHPKYFYGSGSYPDFWGQGTLVTVSS
VL: QSALTQPRSVSGSPGQSVTISCTGSSSDVGASNSVSWYQQHPGKAPKLVIYDVTERPSGVPHRFSGSKSGNTASLTVSGLQPEDEADYFCCAYGGKYLVVFGGGTKVTVL
In the case of B1, the OD450 stood at 3.62 OD450.

B2: TCN-523 (5248_A17) (antibody, V domains shown)
VH: QVQLVQSGAEVKKPGSSVKVSCKASGGSFSNYAFSWVRQAPGQGLEWMGGTIPLLGTTNYAQKFQGRVTISADQFTSTAYMELGSLRSEDTAVYYCTRRKMTTAFDSWGQGTLVTVSS
VL: QPVLTQPPSASASLGASVTLTCTLSSAYSNYKVDWYQQRPGKGPRFVMRVGTGGIVGSKGDGIPDRFSVLGSGLNRYLTIKNIQEEDESDYHCGADHGSGSNFVSPYVFGGGTKLTVL
Consider B2, for which the OD450 is 3.47 OD450.

B3: TCN-530 (5248_H10a) (antibody, V domains shown)
VH: QVQLVQSGAEVRKPGSSVKVSCKASGGPFMSYAIGWVRQAPGQGLEWMGGINPVFGRPHYAQKFQGRVTIATDDSTKTSYMELSSLTSEDTGMYYCASRYSRSSPGTFESWGQGTLVTVSS
VL: EIVMTQFPATLSVSPGERVTLSCRASQSVSNNLAWYQQKPGQPPRLLIYDASTRATGVPAKFSGTGSGTEFTLSISSLQSEDFAVYYCQQYHNWPPSYSFGLGTKLEIK
In the case of B3, the OD450 was 3.52 OD450.

B4: TCN-521 (3280_D18) (antibody, V domains shown)
VH: EVQLVQSGGGLVQPGGSLRLACVVSGFTVTSNYITWVRQAPGKGLEWVSVIYSHGRAYYSASVNGRFTISRHTSKNTVYLEMNSLRPEDTAVYYCAGGGLVGGYDEYFFDYWGQGTLATVSS
VL: ETVLTQSPGTLSLTPGERATLSCRVGQSVSGSHLAWYQQKPGQAPRLLIYGASSRATGIPDRFGGSVSGTDFTLTISRLEPEDSAVYYCQQYGDSRYTFGQGTKLEIK
For B4, the OD450 is 3.7 OD450.

B5: TCN-528 (5087_P17) (antibody, V domains shown)
VH: QVQLVQSGSEVKKPGASVKVSCKASGYTFTNYDINWIRQAPGQGLEWMGWINPNSGTTGSAQRFQGRVTITVDTSITTVYMELSSLRSDDTAIYYCARGRELLRLQHFLTDSQSERRDCFDPWGQGTLVTVSS
VL: DIQMTQSPSSLSASVGDRVTITCRANQDIGIYLNWYQQNPGKVPKLLLHGASSLQGGVPSRFSASGSGTDFTLTIHSLQPEDLATYYCQQSRRLPYTFGQGTRVELK
B5 returned an OD450 of 3.62 OD450.

B6: TCN-526 (5084_C17) (antibody, V domains shown)
VH: EVLMVESGGGLVQPGGSVRLSCVASGFSFSSHWMTWVRQAPGKGLEWVANIEDDGGDKYYVDSVKGRFIISRDNAKNSVYLQMNSLRAEDTAVYFCARGSGSSDRSDYDPHYYYYLDVWGKGATVTVSS
VL: DIQLTQSPSSLSASVGDRVTITCRASQSISRYLNWYQQKPGKAPKLLLFAASTLLDGVPSRFSGSGSGTDFTLTISSLQPEDFATYYCQRNHSPSWTFGQGTRVEIK
Turning to B6, the OD450 stood at 0.06 OD450.

B7: TCN-531 (5091_H13) (antibody, V domains shown)
VH: EVQLVESGGDLVQPGRSLKLSCTGSGFTFGDYGVTWVRQAPGKGLEWVGFIRTRPWGGTADTAASVKGRFTISRDDSKSLAYLQMNSLKTEDTAVYYCCRDAPPNVEVASMTNWYFDLWGRGTLVTVSS
VL: DIQLTQSPSSLSASVGDRVTITCRASQGILNCLAWYQQKPGKVPNLLMYAASTLQSGVPSRFSGSGFGTDFTLTISSLQPEDVATYYCQTYGGVSTFGGGTKVEIR
As to B7, the OD450 came to 3.23 OD450.

B8: TCN-527 (5086_C06) (antibody, V domains shown)
VH: QVQLQESGPGLVKPSETLSLNCAVSGGSISNYYWSWIRQPPGKGLEWIGYISYNGRPKYNPSLTSRVTISVDTSKDQFSLELRSVTAADTALYYCARETRFGELLSPYDAFEIWGQGTMVTVSS
VL: DIQMTQSPSSLSASVGDRVTMTCRASQNIRSYLNWYQQRPGTAPKLLIYAASTLHSGVPSRFSGGGSGTDFTLTINNLQPEDFASYYCQQSYDNPQTFGQGTKVEIK
As to B8, the OD450 is 3.03 OD450.
